Source: US20230183336A1 (MODMAB THERAPEUTICS, published 2023)

Experiments:
[1] = target: T1, recombinant mouse LRP5-His chimera (mouse, UniProt Q91VN0 31-1383); test: single-point ELISA, coated antigen, purified Fab or IgG1, anti-kappa-HRP
T1 construct: extracellular domain; also called ECD of mouse LRP5; not shown: His tag
T1 sequence (looked up): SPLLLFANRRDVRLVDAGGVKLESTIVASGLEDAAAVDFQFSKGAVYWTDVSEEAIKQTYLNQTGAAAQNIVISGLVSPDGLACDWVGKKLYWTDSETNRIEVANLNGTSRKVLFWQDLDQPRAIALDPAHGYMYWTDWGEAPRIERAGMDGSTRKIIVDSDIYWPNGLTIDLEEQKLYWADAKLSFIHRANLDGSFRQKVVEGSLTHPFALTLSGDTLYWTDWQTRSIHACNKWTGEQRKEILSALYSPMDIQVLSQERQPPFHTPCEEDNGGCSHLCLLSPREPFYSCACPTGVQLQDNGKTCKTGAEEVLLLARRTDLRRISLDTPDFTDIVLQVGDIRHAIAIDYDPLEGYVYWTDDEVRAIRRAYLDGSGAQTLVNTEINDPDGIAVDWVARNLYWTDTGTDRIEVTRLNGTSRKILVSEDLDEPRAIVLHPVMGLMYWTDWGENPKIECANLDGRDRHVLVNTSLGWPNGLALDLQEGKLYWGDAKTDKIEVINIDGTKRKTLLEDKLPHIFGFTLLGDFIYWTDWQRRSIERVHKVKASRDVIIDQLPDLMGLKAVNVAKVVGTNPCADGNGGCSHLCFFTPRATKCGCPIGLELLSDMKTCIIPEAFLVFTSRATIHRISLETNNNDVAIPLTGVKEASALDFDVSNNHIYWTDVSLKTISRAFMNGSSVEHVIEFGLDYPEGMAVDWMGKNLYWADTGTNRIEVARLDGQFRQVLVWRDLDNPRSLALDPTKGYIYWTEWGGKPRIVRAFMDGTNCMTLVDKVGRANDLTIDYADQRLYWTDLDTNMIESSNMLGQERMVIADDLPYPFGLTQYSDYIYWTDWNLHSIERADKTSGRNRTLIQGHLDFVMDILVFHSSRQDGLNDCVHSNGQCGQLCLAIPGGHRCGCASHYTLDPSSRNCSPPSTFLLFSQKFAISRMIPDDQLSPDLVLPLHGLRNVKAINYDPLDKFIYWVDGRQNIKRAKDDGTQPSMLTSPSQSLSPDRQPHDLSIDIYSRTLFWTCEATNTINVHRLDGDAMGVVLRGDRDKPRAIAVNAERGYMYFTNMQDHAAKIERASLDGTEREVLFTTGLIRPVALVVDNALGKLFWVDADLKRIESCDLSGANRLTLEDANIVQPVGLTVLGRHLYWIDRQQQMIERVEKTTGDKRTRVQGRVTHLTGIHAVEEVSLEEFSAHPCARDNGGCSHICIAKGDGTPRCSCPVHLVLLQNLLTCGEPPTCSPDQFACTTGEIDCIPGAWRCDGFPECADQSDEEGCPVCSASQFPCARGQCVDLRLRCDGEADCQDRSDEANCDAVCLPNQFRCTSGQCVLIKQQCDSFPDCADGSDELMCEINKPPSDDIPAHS
Protocol: (§1) FIGS. 1A and 1B show sixteen (16) anti-LRP antibodies. (A) The amino acid sequences of the complementarity determining regions (CDR) of the heavy (H) and the light (L) chains are presented. The antibodies were grouped into unique epitopes as determined by competitive ELISAs. (B) Single-point ELISAs were performed on 96-well Maxisorb immune plates coated with ECD's of mouse LRP5, mouse LRP6 and human LRP6 chimeras. The plates were incubated with the purified Fab or IgG1 at the concentrations indicated followed by incubation with horseradish peroxidase (HRP)-conjugated anti-kappa antibody. The wells were washed eight times followed by incubation with 3,3′,5,5′-tetramethylbenzidine/H₂O₂ peroxidase (TMB) substrate for 5-10 min. The reaction was stopped by adding 1M H₃PO₄ and the absorbance was measured spectrometrically at 450 nm in a microtiter plate reader. FIG. 1A discloses “SSVA” as SEQ ID NO: 34, and “SASSLYS” as SEQ ID NO: 35, as well as SEQ ID NOS 36-49, 51, 44, 2-4, 4, 5-7, 5, 4, 5, 8-10, 4, 52, 55, 11-16, 15, 15, 13, 17-20, 13, 53, 56, 21-23, 22, 24-33, 54, 57, respectively, in order of columns.
(§2) The full length IgG1s and the antibody fragments (Fabs) were purified and a single-point ELISA was done to determine the specificity of the antibodies. […] A multipoint competitive ELISA was used to determine the relative affinities of the antibodies to the recombinant antigen.

[2] = target: T2, recombinant mouse LRP6-His chimera (mouse, UniProt O88572 20-1370); test: as above
T2 construct: extracellular domain; also called ECD of mouse LRP6; not shown: His tag
T2 sequence (looked up): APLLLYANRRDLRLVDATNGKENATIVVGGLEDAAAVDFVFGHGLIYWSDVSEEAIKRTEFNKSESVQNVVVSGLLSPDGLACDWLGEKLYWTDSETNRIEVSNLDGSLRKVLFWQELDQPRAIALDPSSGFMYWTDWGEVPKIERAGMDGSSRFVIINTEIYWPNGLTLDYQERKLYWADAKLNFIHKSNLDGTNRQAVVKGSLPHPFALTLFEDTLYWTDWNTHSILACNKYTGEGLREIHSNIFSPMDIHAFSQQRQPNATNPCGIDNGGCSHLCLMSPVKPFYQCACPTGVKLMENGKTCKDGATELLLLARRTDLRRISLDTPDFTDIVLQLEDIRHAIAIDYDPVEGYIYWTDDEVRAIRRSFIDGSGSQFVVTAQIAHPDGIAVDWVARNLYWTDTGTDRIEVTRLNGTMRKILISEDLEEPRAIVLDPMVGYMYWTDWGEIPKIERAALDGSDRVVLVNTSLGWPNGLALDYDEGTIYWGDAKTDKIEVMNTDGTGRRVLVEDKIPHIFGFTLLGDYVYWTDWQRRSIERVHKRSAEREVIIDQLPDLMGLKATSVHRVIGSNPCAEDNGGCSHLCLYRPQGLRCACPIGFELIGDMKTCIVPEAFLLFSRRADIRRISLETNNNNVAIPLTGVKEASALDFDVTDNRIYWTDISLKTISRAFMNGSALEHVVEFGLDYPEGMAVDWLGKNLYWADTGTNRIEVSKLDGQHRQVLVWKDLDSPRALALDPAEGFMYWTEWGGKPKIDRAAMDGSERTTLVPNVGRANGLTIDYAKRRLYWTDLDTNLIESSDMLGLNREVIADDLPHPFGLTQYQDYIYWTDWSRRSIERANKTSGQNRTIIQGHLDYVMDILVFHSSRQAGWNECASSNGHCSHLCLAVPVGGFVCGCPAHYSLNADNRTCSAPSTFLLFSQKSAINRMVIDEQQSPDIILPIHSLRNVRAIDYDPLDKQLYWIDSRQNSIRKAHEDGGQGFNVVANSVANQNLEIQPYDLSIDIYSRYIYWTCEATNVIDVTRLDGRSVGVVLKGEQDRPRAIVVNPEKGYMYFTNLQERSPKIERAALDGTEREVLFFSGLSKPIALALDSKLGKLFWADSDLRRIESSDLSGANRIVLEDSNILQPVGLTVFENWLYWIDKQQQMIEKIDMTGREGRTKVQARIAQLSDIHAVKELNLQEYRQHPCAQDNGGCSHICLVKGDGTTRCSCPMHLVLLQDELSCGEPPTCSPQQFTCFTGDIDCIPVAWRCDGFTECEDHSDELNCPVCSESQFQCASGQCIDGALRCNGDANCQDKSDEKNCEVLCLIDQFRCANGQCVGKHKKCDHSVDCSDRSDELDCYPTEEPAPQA
Protocol: as §1, §2

B1: LRP5-R3O_D3 (antibody, V domains shown)
VH: EVQLVESGGGLVQPGGSLRLSCAASGFNFSSSSIHWVRQAPGKGLEWVASISSSYGYTYYADSVKGRFTISADTSKNTAYLQMNSLRAEDTAVYYCARSWAMDYWGQGTLVTVSS
VL: DIQMTQSPSSLSASVGDRVTITCRASQSVSSAVAWYQQKPGKAPKLLIYSASSLYSGVPSRFSGSRSGTDFTLTISSLQPEDFATYYCQQYWAYYSPITFGQGTKVEIKR
notes: Fab-phage in the screen; also called LRP5-R30_D3; LRP5-R30D3
B1: binds [1]; binds [2].
